Source: patent publication US20180055923A1 (WASHINGTON UNIVERSITY, published 2018)

Biological target: T1, human fibrinogen free from plasminogen and von Willebrand factor (Enzyme Research Laboratory) (human, UniProt P02671 20-629; P02675 31-491; P02679 27-437)
T1 construct: It was bought as purified protein and coated on plates; also called Fg; immobilized human fibrinogen
T1 sequence 1: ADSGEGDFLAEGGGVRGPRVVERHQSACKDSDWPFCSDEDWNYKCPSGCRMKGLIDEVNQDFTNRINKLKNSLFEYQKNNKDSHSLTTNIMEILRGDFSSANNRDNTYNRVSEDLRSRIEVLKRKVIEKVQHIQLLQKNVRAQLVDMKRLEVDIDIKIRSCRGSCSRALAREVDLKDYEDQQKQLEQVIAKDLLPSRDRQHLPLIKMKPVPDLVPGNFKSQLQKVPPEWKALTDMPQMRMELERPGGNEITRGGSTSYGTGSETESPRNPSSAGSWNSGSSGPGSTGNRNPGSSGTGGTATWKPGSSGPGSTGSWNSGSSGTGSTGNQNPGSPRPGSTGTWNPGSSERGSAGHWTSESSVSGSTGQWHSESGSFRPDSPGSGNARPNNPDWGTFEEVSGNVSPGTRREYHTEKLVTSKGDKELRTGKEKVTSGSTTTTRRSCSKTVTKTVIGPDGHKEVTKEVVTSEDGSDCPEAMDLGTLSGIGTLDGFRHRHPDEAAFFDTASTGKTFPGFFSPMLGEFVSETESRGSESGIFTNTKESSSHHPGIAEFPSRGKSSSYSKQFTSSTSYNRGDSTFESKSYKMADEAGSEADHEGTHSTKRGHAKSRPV
T1 sequence 2: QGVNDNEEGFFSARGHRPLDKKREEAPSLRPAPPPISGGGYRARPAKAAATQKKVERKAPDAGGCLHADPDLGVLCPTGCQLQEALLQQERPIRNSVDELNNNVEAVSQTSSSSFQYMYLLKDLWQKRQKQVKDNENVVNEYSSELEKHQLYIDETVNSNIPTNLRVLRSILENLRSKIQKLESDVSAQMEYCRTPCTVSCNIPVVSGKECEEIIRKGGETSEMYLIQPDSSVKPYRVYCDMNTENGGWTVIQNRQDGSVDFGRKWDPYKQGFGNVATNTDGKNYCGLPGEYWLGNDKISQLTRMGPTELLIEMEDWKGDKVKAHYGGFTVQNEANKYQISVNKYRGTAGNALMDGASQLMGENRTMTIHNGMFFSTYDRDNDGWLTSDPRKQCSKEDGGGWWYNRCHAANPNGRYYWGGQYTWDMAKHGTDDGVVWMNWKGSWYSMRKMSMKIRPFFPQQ
T1 sequence 3: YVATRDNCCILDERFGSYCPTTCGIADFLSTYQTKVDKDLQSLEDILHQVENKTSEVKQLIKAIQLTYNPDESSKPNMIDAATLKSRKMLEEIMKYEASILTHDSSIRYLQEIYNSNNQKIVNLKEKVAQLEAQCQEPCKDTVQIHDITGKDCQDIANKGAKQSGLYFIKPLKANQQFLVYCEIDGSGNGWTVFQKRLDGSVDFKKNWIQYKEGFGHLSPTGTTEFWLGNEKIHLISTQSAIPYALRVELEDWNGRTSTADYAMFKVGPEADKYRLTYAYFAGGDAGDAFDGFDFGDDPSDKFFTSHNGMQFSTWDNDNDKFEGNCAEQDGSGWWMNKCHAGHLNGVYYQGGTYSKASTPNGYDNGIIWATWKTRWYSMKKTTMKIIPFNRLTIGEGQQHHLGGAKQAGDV
Test: ELISA, purified protein on immobilized human fibrinogen, detected with mouse anti-EbpA^Full

B1: 6xHis-EbpA^NTD (N-terminal domain of EbpA, residues 115 to 577) (other)
chain: PEKITVPENTKETNKNDSAPEKTEQPTATEEVTNPFAEARMAPATLRANLALPLIAPQYTTDNSGTYPTANWQPTGNQNVLNHQGNKDGSAQWDGQTSWNGDPTNRTNSYIEYGGTGDQADYAIRKYARETTTPGLFDVYLNVRGNVQKEITPLDLVLVVDWSGSMNENNRIGEVQKGVNRFVDTLADSGITNNINMGYVGYSSDGYNNNAIQMGPFDTVKNPIKNITPSSTRGGTFTQKALRDAGDMLATPNGHKKVIVLLTDGVPTFSYKVSRVQTEADGRFYGTQFTNRQDQPGSTSYISGSYNAPDQNNINKRINSTFIATIGEAMALKQRGIEIHGLGIQLQSDPRANLSKQQVEDKMREMVSADENGDLYYESADYAPDISDYLAKKAVQISGTVVNGKVVDPIAEPFKYEPNTLSMKSVGPVQVQTLPEVSLTGATINSNEIYLGKGQEIQIHYQV
notes: not shown: N-terminal 6xHis tag from vector pQE-30Xa
B1: binds.

B2: 6xHis-EbpA^CTD (C-terminal domain of EbpA, residues 594 to 1077) (other)
chain: MNGRTTQPLATAPEKVDFGVPSGKAPGVKLNVKKIWEEYDQDPTSRPDNVIYEISRKQVTDTANWQTGYIKLSKPENDTSNSWERKNVTQLSKTADESYQEVLGLPQYNNQGQAFNYQTTRELAVPGYSQEKIDDTTWKNTKQFKPLDLKVIKNSSSGEKNLVGAVFELSGKNVQTTLVDNKDGSYSLPKDVRLQKGERYTLTEVKAPAGHELGKKTTWQIEVSEQGKVSIDGQEVTTTNQVIPLEIENKFSSLPIRIRKYTMQNGKQVNLAEATFALQRKNAQGSYQTVATQKTDTTGLSYFKISEPGEYRMVEQSGPLGYDTLAGNYEFTVDKYGKIHYAGKNIEENAPEWTLTHQNNLKPFDLTVHKKADNQTPLKGAKFRLTGPDTDIELPKDGKETDTFVFENLKPGKYVLTETFTPEGYQGLKEPIELIIREDGSVTIDGEKVADVLISGEKNNQITLDVTNQAKVPLPETGGIGRLW
notes: Plasmid pSJH-541; not shown: N-terminal 6xHis tag from vector pQE-30Xa
B2: no binding.
